Assay results published in patent US20240091260A1 (FRED HUTCHINSON CANCER CENTER, published 2024).

Tests used:
[1] = biological target: T1, PRAME … (ALY) peptide in complex with HLA-A*0201 (HLA-A2) (human); assay: flow cytometry on OCI-AML2 cells, against isotype control
T1 construct: whole, on cells; Naturally processed and presented on PRAME+/HLA-A2+ cells (THP-1, OCI-AML2, RS4;11 HLA-A2+, primary AML blasts, SK-N-SH); no recombinant complex was used; also called PRAME ALY/HLA-A2; PRAME/HLA-A2 complex
Method: (§1) Flow cytometry of xenograft cells. PE-conjugated Pr20 antibody was used to confirm PRAME expression on target cell lines and primary patient AML samples. Cell lines and primary samples were washed in 2% FBS in PBS, blocked with 20 ug/mL Fc receptor block (BD Pharmingen, catalog no. 564219) in PBS then stained with PE-conjugated anti-human Pr20 antibody and APC-conjugated HLA-A2 antibody for 20 minutes on ice. Labeled cells were washed with PBS and resuspended in 2% FBS/PBS prior to flow cytometric analysis.

[2] = biological target: T1, PRAME … (ALY) peptide in complex with …; assay: flow cytometry on THP-1 cells, against isotype control
Method: as §1

B1: Pr20 monoclonal antibody (antibody, V domains shown)
VH: QVQLVQSGAEVRKPGASVKVSCKASGGTFSSYAISWVRQAPGQGLEWMGRIIPILGIANYAQKFQGRVTITADKSTSTAYMELSSLRSEDTAVYYCARHYGQWWDYWGQGTLVTVSS
VL: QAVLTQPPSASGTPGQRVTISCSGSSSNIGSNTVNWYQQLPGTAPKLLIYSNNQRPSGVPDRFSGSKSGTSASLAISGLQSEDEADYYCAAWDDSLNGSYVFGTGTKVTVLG
notes: also called Pr20 mAb; Pr20 antibody
[1]
  MFI (fold change to isotype control): 5 fold
[2]
  MFI (fold change to isotype control): 2.75 fold
